# According to the supplement of paper PMC10126150:
# ± gives the standard deviation of the averaged measurements.
# Tested on: ATP
# Assay: switch fluorescence ratio, 500 uM ATP over buffer (Cy3 cluster intensity, sum of 5 cycles each) (fold (ratio)); higher = stronger signal-on switching upon ATP binding; sequences stand for … in TCGTCGGCAGCGTCAGATGTGTATAAGAGACAGTTTTTTTTTTTTTTTTTTTTTTTTT…TC
# Conditions: aptamer strand: ATP DNA aptamer (quencher-CACCTGGGGGAGTATTGCGGAGGAAGG + anchor), 100 nM annealed; ATP concentration: 500 uM
# In short: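 Per cluster, summed Cy3 intensity from the target cycles was divided by that from the buffer cycles to give the fluorescence ratio, then averaged per switch-domain sequence. Clusters outside 100-1000 RFU were excluded. The Cy3-labelled switching-strand clusters, on a modified Illumina MiSeq flow-cell, were annealed to 100 nM quencher-labelled ATP aptamer and imaged in selection buffer, then after 15 min with 500 uM ATP at 22 °C, for five cycles with NaOH stripping and re-annealing between them.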
# 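Also: ATP exposure 15 min at 22 °C before imaging.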
row,Sequence,switch fluorescence ratio
1,CGGGATTATG,1.01 ± 0.052
2,CGGGATTTAA,1.03 ± 0.054
3,CGGGCAGCGG,0.955 ± 0.06
4,CGGGCCACGA,1.04 ± 0.026
5,CGGGCCCCGG,1.74 ± 0.35
6,CGGGCCTGAA,0.999 ± 0.041
7,CGGGCGAATA,1 ± 0.017
8,CGGGCGAGGG,0.959 ± 0.011
9,CGGGCGCTGG,0.995 ± 0.018
10,CGGGCGGCAG,1.04 ± 0.027
11,CGGGCGGGGC,1.04 ± 0.028
12,CGGGCGGGTA,1.034 ± 0.0088
13,CGGGCGGTCG,0.975 ± 0.068
14,CGGGCGTGCC,0.966 ± 0.014
15,CGGGCTAAGG,0.986 ± 0.018
16,CGGGCTGGCA,1.004 ± 0.01
17,CGGGCTGGGT,0.987 ± 0.057
18,CGGGCTTCGA,0.993 ± 0.013
19,CGGGGAAAAA,1.06 ± 0.094
20,CGGGGAAGCG,1.01 ± 0.021
21,CGGGGAATCA,0.991 ± 0.038
22,CGGGGAGAGC,1.03 ± 0.039
23,CGGGGAGAGG,0.998 ± 0.036
24,CGGGGAGCGT,1 ± 0.034
25,CGGGGAGCTG,1.02 ± 0.036
26,CGGGGAGGGG,0.985 ± 0.028

row,Sequence,switch fluorescence ratio
1,CGGGGAGTAA,1.01 ± 0.012
2,CGGGGAGTTT,0.978 ± 0.05
3,CGGGGATATT,1.11 ± 0.23
4,CGGGGATGAA,1.01 ± 0.063
5,CGGGGCAAAT,1.04 ± 0.028
6,CGGGGCACGT,1.16 ± 0.23
7,CGGGGCAGCT,1.1 ± 0.11
8,CGGGGCATTG,1.013 ± 0.0046
9,CGGGGCGAGG,1 ± 0.017
10,CGGGGCTTTG,0.982 ± 0.025
11,CGGGGGAACG,1.01 ± 0.048
12,CGGGGGAAGG,0.979 ± 0.026
13,CGGGGGAGGC,0.96 ± 0.018
14,CGGGGGAGTC,1.02 ± 0.027
15,CGGGGGATCA,1.01 ± 0.049
16,CGGGGGATTT,1.01 ± 0.014
17,CGGGGGCACC,1.07 ± 0.057
18,CGGGGGCGGA,1.04 ± 0.052
19,CGGGGGCTCG,0.989 ± 0.069
20,CGGGGGCTGT,0.964 ± 0.0037
21,CGGGGGGAGG,1.01 ± 0.035
22,CGGGGGGATA,1.07 ± 0.15
23,CGGGGGGCCC,0.97 ± 0.024
24,CGGGGGGCCG,0.995 ± 0.01
25,CGGGGGGGC,1.001 ± 0.01
26,CGGGGGGGTG,1.03 ± 0.096

row,Sequence,switch fluorescence ratio
1,CGGGGGGTGT,1.01 ± 0.023
2,CGGGGGGTTG,0.984 ± 0.033
3,CGGGGGTAAG,0.991 ± 0.027
4,CGGGGGTCCT,0.986 ± 0.015
5,CGGGGGTGGC,0.984 ± 0.029
6,CGGGGGTGTC,0.998 ± 0.026
7,CGGGGGTTCG,1.05 ± 0.057
8,CGGGGGTTGT,0.963 ± 0.036
9,CGGGGTAAGT,1.01 ± 0.021
10,CGGGGTAATG,0.979 ± 0.012
11,CGGGGTACGT,0.985 ± 0.027
12,CGGGGTAGCG,0.965 ± 0.013
13,CGGGGTATAG,1.37 ± 0.52
14,CGGGGTCGCC,0.984 ± 0.021
15,CGGGGTGAAT,1.022 ± 0.0052
16,CGGGGTGAGG,0.997 ± 0.014
17,CGGGGTGCTT,1.01 ± 0.012
18,CGGGGTGGTA,0.9873 ± 0.0069
19,CGGGGTTGGG,1.01 ± 0.047
20,CGGGGTTTTG,1.014 ± 0.0068
21,CGGGTAAAGG,0.9441 ± 0.0076
22,CGGGTACTAG,1.02 ± 0.044
23,CGGGTAGCT,1.01 ± 0.03
24,CGGGTAGTTA,0.99 ± 0.029
25,CGGGTATGCC,0.96 ± 0.0098
26,CGGGTCCAGC,1.01 ± 0.033

row,Sequence,switch fluorescence ratio
1,CGGGTCGGCA,1.03 ± 0.017
2,CGGGTCGTGC,1.03 ± 0.013
3,CGGGTGATTC,1.04 ± 0.021
4,CGGGTGCACT,0.98 ± 0.027
5,CGGGTGTAGT,1.03 ± 0.024
6,CGGGTGTATC,1.03 ± 0.046
7,CGGGTGTGGA,1.05 ± 0.04
8,CGGGTGTTCG,1.02 ± 0.075
9,CGGGTTAAGT,1.03 ± 0.11
10,CGGGTTAAT,1 ± 0.041
11,CGGGTTATAA,1.04 ± 0.022
12,CGGGTTATGG,0.981 ± 0.049
13,CGGGTTCTAT,0.977 ± 0.036
14,CGGGTTGCCC,1 ± 0.012
15,CGGGTTGCGG,0.9508 ± 0.009
16,CGGGTTTAAC,0.998 ± 0.021
17,CGGGTTTGAC,0.984 ± 0.047
18,CGGGTTTTAT,1.01 ± 0.028
19,CGGTAAATAA,1.01 ± 0.021
20,CGGTAAGGCG,0.947 ± 0.11
21,CGGTAATCGG,0.988 ± 0.01
22,CGGTAATGTG,1.03 ± 0.035
23,CGGTAATTTT,0.975 ± 0.021
24,CGGTACCATC,1.02 ± 0.013
25,CGGTAGTGCG,0.975 ± 0.021
26,CGGTCAGGGT,0.995 ± 0.015

row,Sequence,switch fluorescence ratio
1,CGGTCATTTT,0.998 ± 0.033
2,CGGTCCACGA,1.022 ± 0.0017
3,CGGTCGAGGT,0.993 ± 0.038
4,CGGTCGGGGA,1 ± 0.043
5,CGGTCGGTGT,0.982 ± 0.022
6,CGGTCTAATT,0.9989 ± 0.0027
7,CGGTCTATGC,1.12 ± 0.035
8,CGGTCTCCGG,1.03 ± 0.012
9,CGGTCTGTTC,0.994 ± 0.052
10,CGGTGAAATG,0.975 ± 0.017
11,CGGTGAGGCT,0.984 ± 0.017
12,CGGTGAGTGT,0.9608 ± 0.0063
13,CGGTGATCGG,0.996 ± 0.013
14,CGGTGCCGGT,0.9841 ± 0.0091
15,CGGTGCGGGT,0.992 ± 0.016
16,CGGTGCGGTG,0.981 ± 0.013
17,CGGTGGAATC,1.36 ± 0.45
18,CGGTGGCGTC,1.01 ± 0.048
19,CGGTGGGGAT,1.02 ± 0.046
20,CGGTGGGGCG,1 ± 0.034
21,CGGTGGGGT,1.035 ± 0.0064
22,CGGTGGGTCT,1.006 ± 0.0015
23,CGGTGGGTTA,0.985 ± 0.025
24,CGGTGGTGTG,0.963 ± 0.048
25,CGGTGGTTGA,1.01 ± 0.053
26,CGGTGTAAAA,0.961 ± 0.011

row,Sequence,switch fluorescence ratio
1,CGGTGTCAGC,1.012 ± 0.0059
2,CGGTTAAAAT,0.989 ± 0.023
3,CGGTTAGCGG,0.983 ± 0.044
4,CGGTTAGGCT,1.06 ± 0.012
5,CGGTTATCGC,1.03 ± 0.052
6,CGGTTATGGT,0.99 ± 0.022
7,CGGTTCGGGC,0.983 ± 0.023
8,CGGTTCTGTA,1.01 ± 0.027
9,CGGTTCTTGA,0.995 ± 0.038
10,CGGTTGACGT,1.01 ± 0.013
11,CGGTTGAGTA,0.9982 ± 0.0043
12,CGGTTGGCGT,1.04 ± 0.088
13,CGGTTGGGGT,0.989 ± 0.0088
14,CGGTTGTTGA,1.01 ± 0.031
15,CGGTTGTTGT,1.01 ± 0.021
16,CGGTTTAAGT,0.993 ± 0.028
17,CGGTTTAGGA,0.988 ± 0.028
18,CGGTTTCCGC,1.04 ± 0.022
19,CGGTTTCTGT,0.9814 ± 0.0092
20,CGGTTTGGTA,0.976 ± 0.014
21,CGGTTTGTTA,0.985 ± 0.037
22,CGGTTTGTTT,0.987 ± 0.04
23,CGGTTTTATA,0.9619 ± 0.0088
